These results are taken from US20220411501A1 (INTERNATIONAL DRUG DEVELOPMENT BIOTECH, published 2022).

In experiment [1] the target is T1, CD117 (c-Kit, stem cell factor receptor) on HEL or TF1 human erythroleukemia cells (human, UniProt P10721 26-976).
T1 construct: whole, on cells
The experiment in a line: flow cytometry on HEL cells; 100 µl/2.10^5 cells. The procedure: (§1) By flow cytometry, the humanized mAb staining was analyzed on HEL CD117 positive cell line. […] No staining was observed on the cell line CEM (CD117 negative, (data not shown).
For orientation: Flow cytometry measures light scatter and fluorescence of single cells or particles in a stream.

In experiment [2] the target is T1, CD117 (c-Kit, stem cell factor …). Description: flow cytometry on HEL cells; 10 µl/2.10^5 cells. As to the method:
as §1

The target is the same in experiment [3]. The experiment in a line: flow cytometry on HEL cells; 1 µl/2.10^5 cells. As to the method: as §1
For experiment [4] the target is unchanged. The experiment in a line: flow cytometry on HEL cells; 0.1 µl/2.10^5 cells. The procedure:
as §1

T1 sequence (P10721 26-976): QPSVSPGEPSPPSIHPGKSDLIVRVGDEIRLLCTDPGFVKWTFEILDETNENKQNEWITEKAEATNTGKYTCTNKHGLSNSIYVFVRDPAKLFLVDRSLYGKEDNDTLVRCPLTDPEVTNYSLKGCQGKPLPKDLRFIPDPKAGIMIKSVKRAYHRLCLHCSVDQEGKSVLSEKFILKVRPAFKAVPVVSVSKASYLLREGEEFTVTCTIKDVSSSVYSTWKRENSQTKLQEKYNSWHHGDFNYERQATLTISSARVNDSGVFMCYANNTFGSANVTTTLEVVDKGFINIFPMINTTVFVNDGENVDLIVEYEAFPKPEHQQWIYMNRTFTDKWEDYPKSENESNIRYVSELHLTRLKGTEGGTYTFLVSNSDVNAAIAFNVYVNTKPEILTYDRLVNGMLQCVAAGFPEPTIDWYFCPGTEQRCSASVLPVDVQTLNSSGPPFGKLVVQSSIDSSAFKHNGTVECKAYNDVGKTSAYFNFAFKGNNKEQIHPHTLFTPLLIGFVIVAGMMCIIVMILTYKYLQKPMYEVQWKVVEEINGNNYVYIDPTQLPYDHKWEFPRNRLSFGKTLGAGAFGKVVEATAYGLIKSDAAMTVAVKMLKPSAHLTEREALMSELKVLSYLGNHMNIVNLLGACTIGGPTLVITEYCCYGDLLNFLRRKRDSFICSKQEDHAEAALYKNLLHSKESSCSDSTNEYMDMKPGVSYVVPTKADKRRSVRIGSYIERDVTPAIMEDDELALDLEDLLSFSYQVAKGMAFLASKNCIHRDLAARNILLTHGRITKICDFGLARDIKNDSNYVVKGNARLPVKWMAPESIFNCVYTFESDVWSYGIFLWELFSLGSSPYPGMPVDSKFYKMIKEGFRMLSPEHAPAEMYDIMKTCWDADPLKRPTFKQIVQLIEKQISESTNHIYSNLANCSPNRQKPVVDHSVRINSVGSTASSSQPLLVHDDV

B1: humanized antibody 36-5 Hz121 (antibody, human IgG1, V domains shown)
VH: QVQLVQSGAEVKKPGASVKVSCKASGYTFTSYWMNWVRQAPGQGLEWMGRIDPSDSEIHYNQKFKGRVTMTVDTSTSTAYMELSSLRSEDTAVYYCARDYGSDYYAMDYWGQGTLVTVSS
VL: QIVLTQSPAFQSVTPGEKVTITCSASQSVSYMHWYQQKSGTSPKLLIYSTSNLTSGVPSRFSGSGSGTDYTLTISSLEAEDAATYYCHQWSSYPFGGGTKVEIK
notes: The variable regions were cloned into vector p3U containing the human IgG1 constant region; also called H-36.5Hz30 + L-36.5Hz31
Regarding B1, the “% labelled HEL cells” value in experiment [1] was 73%; in experiment [2], 70%; in experiment [3], 67%; in experiment [4] it was 59%. Besides, the MFI in experiment [1] came to 241; in experiment [2], 236; in experiment [3] it was 228; in experiment [4] it was 210.

B2: humanized antibody 36-5 Hz128 (antibody, human IgG1, V domains shown)
VH: QVQLVQSGAEVKKPGASVKVSCKASGYTFTSYWMNWVRQAPGQGLEWIGRIDPSDSEIHYNQKFKGRVTMTVDTSTSTAYMELSSLRSEDTAVYYCARDYGSDYYAMDYWGQGTLVTVSS
VL: QIVLTQSPAFQSVTPGEKVTITCSASQSVSYMHWYQQKSGTSPKLLIYSTSNLTSGVPSRFSGSGSGTDYTLTISSLEAEDAATYYCHQWSSYPFGGGTKVEIK
notes: The variable regions were cloned into vector p3U containing the human IgG1 constant region; also called H-36.5Hz31 + L-36.5Hz31
For B2, the “% labelled HEL cells” value in experiment [1] was 94%; in experiment [2], 77%; in experiment [3], 72%; in experiment [4] it was 61%. The MFI in experiment [1] was 291; in experiment [2] it was 250; in experiment [3], 240; in experiment [4], 214.

B3: humanized antibody 36-5 Hz114 (antibody, human IgG1, V domains shown)
VH: QVQLVQSGAEVKKPGASVKVSCKASGYTFTSYWMNWVRQAPGQGLEWMGRIDPSDSEIHYNQKFKDKATLTVDKSTSTAYMELSSLRSEDTAVYYCARDYGSDYYAMDYWGQGTLVTVSS
VL: QIVLTQSPAFQSVTPGEKVTITCSASQSVSYMHWYQQKSGTSPKLLIYSTSNLTSGVPSRFSGSGSGTDYTLTISSLEAEDAATYYCHQWSSYPFGGGTKVEIK
notes: The variable regions were cloned into expression vector p3U containing the human IgG1 constant region; also called H-36.5Hz27 + L-36.5Hz31
On to B3, for which the “% labelled HEL cells” value in experiment [1] worked out at 74%; in experiment [2] it was 70%; in experiment [3], 66%; in experiment [4] it was 64%. For the same molecule, the MFI is 242 in experiment [1], 136 in experiment [2], 228 in experiment [3] and 225 in experiment [4].

B4: ch36-05 chimeric monoclonal antibody (antibody, human IgG1, kappa, V domains shown)
VH: QVQLQQSGAELVKPGAPVKLSCKASGYTFTRYWMNWVKQRPGRGLEWIGRIDPSDSEIHYNQNFKDKATLTVDKSSSTAYIQLSSLTSEDSAVYYCARDYGSDYYAMDYWGQGTSVTVSS
VL: QIVLTQSPAIMSASLGEEITLTCSASSSVSYMHWYQQKSGTSPKLLIYSTSNLTSGVPSRFSGSGSGTFYSLTISSVEAEDAADYYCHQWSSYPFGGGTKLEIKR
notes: Murine VH + human IgG1 Fc; murine VL + human Kappa; also called chR036-05; chR036.05
For B4, the “% labelled HEL cells” value came to 80% in experiment [1], 81% in experiment [2], 80% in experiment [3] and 43% in experiment [4]. Besides, the MFI in experiment [1] was 251; in experiment [2] it was 262; in experiment [3] it was 259; in experiment [4] it was 259.
